Laboratory results: patent US12697371B2, “Method for preventing, treating or delaying myocardial damage using neuregulin and composition” (ZENSUN (SHANGHAI) SCIENCE & TECHNOLOGY, CO., LTD., priority 2019, dated 2026)
Entries after “also recorded” stand apart in the source; their conditions may differ.

Experiments:
[1] = test system: rats with acute myocardial infarction caused by left coronary artery ligation; test: Echocardiography, rat acute myocardial infarction, long-term subcutaneous NRG at different frequencies (Example 2); type: in vivo, Wistar rats
Protocol: Established in the same way as the rat model of heart failure caused by coronary artery ligation in 5.1, Embodiment 1
All the experimental animals were randomly divided into groups upon coronary artery ligation. According to post-ligation survival, the rats were randomly divided into 4 groups by body weight: the excipient group (control group), the NRG30 μg/kgDay group, the NRG30 μg/kg/BlW group and the NRG30 μgkgDay*7+QW group. Administration began on the day following the animal model establishment of myocardial infarction. For the first three groups and for the fourth group on the first 7 days, the rats were given subcutaneous injection 3 times a day and weighed once a day. They took medicine by weight and the dose was 30 μg/kg/day. For the fourth group in the last four weeks, the rats were injected with NRG on one day per week, and the daily dose was 30 μg/kg.
(§1) After being anesthetized with 4% isoflurane, the rats were fixed onto the operating board in the left lateral recumbent position. The head of the rats was fixed in the breathing mask of the gaseous anesthesia machine, with isoflurane used for maintenance of anesthesia. After chest hair removal, the skin was disinfected with 75% alcohol and coated with a coupling agent. An echocardiography probe was used to detect any echo signal from the left ventricle of the rats. The left ventricular end-diastolic diameter and left ventricular end-systolic diameter (D) were measured. The left ventricular end-diastolic volume (EDV) and end-systolic volume (ESV) were calculated. Also, the ejection fraction (EF) value was found, EF−(EDV−ESV)/EDV*100%. The cardiac function of the rats was performed by echocardiography in the 1st, 2nd, 3rd and 5th weeks after the occurrence of myocardial infarction.

[2] = test system: rats with acute myocardial infarction caused by left coronary artery ligation; test: Echocardiography, rat acute myocardial infarction (left coronary artery ligation), 60-day subcutaneous NRG at different doses (Example 1); type: in vivo, Wistar rats; settings: for EF / LVEDd / LVEDs: 3 times a day
Source text: 5.1 Establishment of a Rat Model of Heart Failure Caused by Coronary Artery Ligation
The rats were anesthetized with isoflurane through a gaseous anesthesia apparatus. Then, the rats were fixed in a supine position. After chest hair removal, the skin was disinfected with 75% alcohol. After the incision of the left anterior chest skin, the thoracic muscles were bluntly separated, with the 4th and 5th ribs exposed. Hemostatic forceps were used to bluntly cut off the muscle between the 4th and 5th ribs. Both hands were used to squeeze the heart out of the thoracic cavity so that the heart should be fully exposed for observation of lung inflation and heartbeats. The left atrial appendage and pulmonary conus were fully exposed to ligate the left anterior descending coronary artery (LADCA) with surgical suture between them. […] Then, the thoracic muscles and skin were sutured. After surgery, the rats were put back into the cages for feeding and close observations.
Administration began on the day following the animal model establishment of myocardial infarction.
as §1, with “EF=(EDV−ESV)/EDV*100%.” for “EF−(EDV−ESV)/EDV*100%. The cardiac function of the rats was performed by echocardiography in the 1st, 2nd, 3rd and 5th weeks after the occurrence of myocardial infarction.”

[3] = 30 μg/kg/Day sc, after 35 days of continuous administration
[4] = DAY 8, 30 μg/kg BIW sc, 3 times a day, 2 days a week × 5 weeks
[5] = DAY 8, 30 μg/kg Day*7 + QW sc, 3 times a day × 7 days, then 1 day/week × 4 weeks
[6] = DAY 8, 30 μg/kg/Day sc, 3 times a day × 35 days
[7] = DAY 15, 30 μg/kg BIW sc, 3 times a day, 2 days a week × 5 weeks
[8] = DAY 15, 30 μg/kg Day*7 + QW sc, 3 times a day × 7 days, then 1 day/week × 4 weeks
[9] = DAY 15, 30 μg/kg/Day sc, 3 times a day × 35 days
[10] = DAY 22, 30 μg/kg BIW sc, 3 times a day, 2 days a week × 5 weeks
[11] = DAY 22, 30 μg/kg Day*7 + QW sc, 3 times a day × 7 days, then 1 day/week × 4 weeks
[12] = DAY 22, 30 μg/kg/Day sc, 3 times a day × 35 days
[13] = DAY 36, 30 μg/kg BIW sc, 3 times a day, 2 days a week × 5 weeks
[14] = DAY 36, 30 μg/kg Day*7 + QW sc, 3 times a day × 7 days, then 1 day/week × 4 weeks
[15] = DAY 36, 30 μg/kg/Day sc, 3 times a day × 35 days

B1: NRG: fragment of the NRG-1β2 isomer, 177-237 amino acid fragment containing an EGF-like domain (SEQ ID NO: 1); developed by Zensun (protein, listed as Homo sapiens)
chain: SHLVKCAEKEKTFCVNGGECFMVKDLSNPSRYLCKCPNEFTGDRCQNYVMASFYKAEELYQ
- EF value compared with the control group ([1]; 30 μg/kg/BIW sc, after 35 days): rising trend
- EF value compared with the control group [1, 3]: significantly higher
- LVEDd and LVEDs compared with the control group [1, 3]: significantly reduce
- Cardiac function compared with the control group ([1]; 30 μg/kg/Day*7+QW sc, first 7 days of continuous administration): improved to some extent
- EF [1, 4]: 50.9 ± 8.958%
- LVEDd [1, 4]: 0.809 ± 0.045 cm
- LVEDs [1, 4]: 0.625 ± 0.068 cm
- EF [1, 5]: 50.9 ± 7.337%
- LVEDd [1, 5]: 0.785 ± 0.045 cm
- LVEDs [1, 5]: 0.607 ± 0.061 cm
- EF [1, 6]: 52.2 ± 7.802%
- LVEDd [1, 6]: 0.785 ± 0.046 cm
- LVEDs [1, 6]: 0.601 ± 0.063 cm
- EF [1, 7]: 48.9 ± 9.893%
- LVEDd [1, 7]: 0.856 ± 0.065 cm
- LVEDs [1, 7]: 0.671 ± 0.091 cm
- EF [1, 8]: 47.1 ± 8.344%
- LVEDd [1, 8]: 0.864 ± 0.054 cm
- LVEDs [1, 8]: 0.686 ± 0.074 cm
- EF [1, 9]: 50.3 ± 8.49%
- LVEDd [1, 9]: 0.832 ± 0.054 cm
- LVEDs [1, 9]: 0.646 ± 0.075 cm
- EF [1, 10]: 47.1 ± 10.427%
- LVEDd [1, 10]: 0.896 ± 0.074 cm
- LVEDs [1, 10]: 0.711 ± 0.102 cm
- EF [1, 11]: 44.7 ± 8.434%
- LVEDd [1, 11]: 0.905 ± 0.062 cm
- LVEDs [1, 11]: 0.729 ± 0.08 cm
- EF [1, 12]: 49.5 ± 7.897%
- LVEDd [1, 12]: 0.859 ± 0.057 cm
- LVEDs [1, 12]: 0.670 ± 0.069 cm
- EF [1, 13]: 45.2 ± 10.248%
- LVEDd [1, 13]: 0.928±0.084 cm
- LVEDs [1, 13]: 0.746 ± 0.110 cm
- EF [1, 14]: 42.7±9.892%
- LVEDd [1, 14]: 0.931±0.070 cm
- LVEDs [1, 14]: 0.76 ± 0.097 cm
- EF [1, 15]: 47.9±8.342%
- LVEDd [1, 15]: 0.879±0.058 cm
- LVEDs [1, 15]: 0.694±0.077 cm
- EF ([2]; DAY 20, 3.75 μg/kg/D sc): 39.7 ± 10.84%
- LVEDd ([2]; DAY 20, 3.75 μg/kg/D sc): 0.937 ± 0.06 cm
- LVEDs ([2]; DAY 20, 3.75 μg/kg/D sc): 0.777 ± 0.08 cm
- EF ([2]; DAY 20, 7.5 μg/kg/D sc): 41.9 ± 15.17%
- LVEDd ([2]; DAY 20, 7.5 μg/kg/D sc): 0.924 ± 0.05 cm
- LVEDs ([2]; DAY 20, 7.5 μg/kg/D sc): 0.756 ± 0.08 cm
- EF ([2]; DAY 20, 15 μg/kg/D sc): 40.6 ± 9.15%
- LVEDd ([2]; DAY 20, 15 μg/kg/D sc): 0.908 ± 0.05 cm
- LVEDs ([2]; DAY 20, 15 μg/kg/D sc): 0.759 ± 0.08 cm
- EF ([2]; DAY 40, 3.75 μg/kg/D sc): 40.4 ± 12.86%
- LVEDd ([2]; DAY 40, 3.75 μg/kg/D sc): 0.982 ± 0.09 cm
- LVEDs ([2]; DAY 40, 3.75 μg/kg/D sc): 0.813 ± 0.13 cm
- EF ([2]; DAY 40, 7.5 μg/kg/D sc): 40.5 ± 13.39%
- LVEDd ([2]; DAY 40, 7.5 μg/kg/D sc): 0.946 ± 0.08 cm
- LVEDs ([2]; DAY 40, 7.5 μg/kg/D sc): 0.782 ± 0.12 cm
- EF ([2]; DAY 40, 15 μg/kg/D sc): 42.2 ± 11.27%
- LVEDd ([2]; DAY 40, 15 μg/kg/D sc): 0.946 ± 0.08 cm
- LVEDs ([2]; DAY 40, 15 μg/kg/D sc): 0.775 ± 0.11 cm
- EF ([2]; DAY 60, 3.75 μg/kg/D sc): 37.0±12.23%
- LVEDd ([2]; DAY 60, 3.75 μg/kg/D sc): 0.994±0.08 cm
- LVEDs ([2]; DAY 60, 3.75 μg/kg/D sc): 0.839±0.12 cm
- EF ([2]; DAY 60, 7.5 μg/kg/D sc): 38.4±12.17%
- LVEDd ([2]; DAY 60, 7.5 μg/kg/D sc): 0.965±0.07 cm
- LVEDs ([2]; DAY 60, 7.5 μg/kg/D sc): 0.808±0.11 cm
- EF ([2]; DAY 60, 15 μg/kg/D sc): 42.9±11.32%
- LVEDd ([2]; DAY 60, 15 μg/kg/D sc): 0.975±0.07 cm
- LVEDs ([2]; DAY 60, 15 μg/kg/D sc): 0.794±0.10 cm
- Cardiac function / EF value compared with the control group ([2]; high-, middle- and low-dose groups (15, 7.5, 3.75 μg/kg/D sc), after 60 days of continuous administration): all improved; also recorded: higher than that of the control group
- LVEDd and LVEDs compared with the excipient group ([2]; high-dose group (15 μg/kg/D sc), 60 days): could be reduced
